# Patent US20220204580A1 (AstraZeneca / MedImmune, published 2022)
# Numbered stars: 1 amine (or outer) side, 2 acyl side, 3 side chain; on linkers, the order of the positions; unused ones are H or OH. Bridge positions count the residues as written; N and C are the ends. Square brackets hold non-standard residues; d marks the D form. Side chains are listed from the residue outwards. Ends that are not written are not given here. * marks the point of attachment. C18 diacid = O=C(O)CCCCCCCCCCCCCCCCC(=O)*; γGlu = O=C(O)[C@H](CCC(=O)[*:2])N[*:1]; Aib = CC(C)(N)C(=O)O
# T1: human amylin receptor (calcitonin receptor co-expressed with receptor activity modifying protein, RAMP3) (human, UniProt P30988 25-474; O60896 24-148)
# T1 sequence (looked up) 1: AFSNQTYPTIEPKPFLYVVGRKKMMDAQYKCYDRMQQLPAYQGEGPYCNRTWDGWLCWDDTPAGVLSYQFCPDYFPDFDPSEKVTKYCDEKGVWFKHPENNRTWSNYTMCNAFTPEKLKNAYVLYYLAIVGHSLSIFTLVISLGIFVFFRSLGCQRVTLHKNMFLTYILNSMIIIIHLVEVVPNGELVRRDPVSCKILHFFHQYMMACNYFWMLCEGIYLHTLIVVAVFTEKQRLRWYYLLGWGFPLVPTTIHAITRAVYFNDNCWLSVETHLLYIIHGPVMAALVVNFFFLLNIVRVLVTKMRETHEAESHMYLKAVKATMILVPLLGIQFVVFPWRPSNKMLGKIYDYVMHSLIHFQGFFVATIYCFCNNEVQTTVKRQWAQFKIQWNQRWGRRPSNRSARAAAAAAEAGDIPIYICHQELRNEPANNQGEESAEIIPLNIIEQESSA
# T1 sequence (looked up) 2: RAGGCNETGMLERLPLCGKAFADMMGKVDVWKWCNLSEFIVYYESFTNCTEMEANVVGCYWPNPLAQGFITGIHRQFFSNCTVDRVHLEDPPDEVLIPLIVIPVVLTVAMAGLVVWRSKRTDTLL
# T2: human calcitonin receptor (human, UniProt P30988 25-474)
# T2 sequence (looked up): T1 sequence (looked up) 1
# B1: Peptide 83 (SEQ ID NO: 83) (peptide)
# peptide: K([γGlu-C18 diacid])KCNTATCATQRLANFLVHSS[Aib]NFGPILPPTNVGSN[Aib]Y-NH2
# modifications: disulfide 3-8; N-terminus assumed
# SMILES: CC[C@H](C)[C@H](NC(=O)[C@@H]1CCCN1C(=O)CNC(=O)[C@H](Cc1ccccc1)NC(=O)[C@H](CC(N)=O)NC(=O)C(C)(C)NC(=O)[C@H](CO)NC(=O)[C@H](CO)NC(=O)[C@H](Cc1c[nH]cn1)NC(=O)[C@@H](NC(=O)[C@H](CC(C)C)NC(=O)[C@H](Cc1ccccc1)NC(=O)[C@H](CC(N)=O)NC(=O)[C@H](C)NC(=O)[C@H](CC(C)C)NC(=O)[C@H](CCCNC(=N)N)NC(=O)[C@H](CCC(N)=O)NC(=O)[C@@H](NC(=O)[C@H](C)NC(=O)[C@@H]1CSSC[C@H](NC(=O)[C@H](CCCCN)NC(=O)[C@@H](N)CCCCNC(=O)CC[C@H](NC(=O)CCCCCCCCCCCCCCCCC(=O)O)C(=O)O)C(=O)N[C@@H](CC(N)=O)C(=O)N[C@@H]([C@@H](C)O)C(=O)N[C@@H](C)C(=O)N[C@@H]([C@@H](C)O)C(=O)N1)[C@@H](C)O)C(C)C)C(=O)N[C@@H](CC(C)C)C(=O)N1CCC[C@H]1C(=O)N1CCC[C@H]1C(=O)N[C@H](C(=O)N[C@@H](CC(N)=O)C(=O)N[C@H](C(=O)NCC(=O)N[C@@H](CO)C(=O)N[C@@H](CC(N)=O)C(=O)NC(C)(C)C(=O)N[C@@H](Cc1ccc(O)cc1)C(N)=O)C(C)C)[C@@H](C)O
# B2: Peptide 85 (SEQ ID NO: 85) (peptide)
# peptide: K([γGlu-C18 diacid])KCNTATCATQRLANFLVHSS[Aib]NFGPILPPTNVGSNT[Aib]-NH2
# modifications: disulfide 3-8; N-terminus assumed
# SMILES: CC[C@H](C)[C@H](NC(=O)[C@@H]1CCCN1C(=O)CNC(=O)[C@H](Cc1ccccc1)NC(=O)[C@H](CC(N)=O)NC(=O)C(C)(C)NC(=O)[C@H](CO)NC(=O)[C@H](CO)NC(=O)[C@H](Cc1c[nH]cn1)NC(=O)[C@@H](NC(=O)[C@H](CC(C)C)NC(=O)[C@H](Cc1ccccc1)NC(=O)[C@H](CC(N)=O)NC(=O)[C@H](C)NC(=O)[C@H](CC(C)C)NC(=O)[C@H](CCCNC(=N)N)NC(=O)[C@H](CCC(N)=O)NC(=O)[C@@H](NC(=O)[C@H](C)NC(=O)[C@@H]1CSSC[C@H](NC(=O)[C@H](CCCCN)NC(=O)[C@@H](N)CCCCNC(=O)CC[C@H](NC(=O)CCCCCCCCCCCCCCCCC(=O)O)C(=O)O)C(=O)N[C@@H](CC(N)=O)C(=O)N[C@@H]([C@@H](C)O)C(=O)N[C@@H](C)C(=O)N[C@@H]([C@@H](C)O)C(=O)N1)[C@@H](C)O)C(C)C)C(=O)N[C@@H](CC(C)C)C(=O)N1CCC[C@H]1C(=O)N1CCC[C@H]1C(=O)N[C@H](C(=O)N[C@@H](CC(N)=O)C(=O)N[C@H](C(=O)NCC(=O)N[C@@H](CO)C(=O)N[C@@H](CC(N)=O)C(=O)N[C@H](C(=O)NC(C)(C)C(N)=O)[C@@H](C)O)C(C)C)[C@@H](C)O
# B3: Peptide 86 (SEQ ID NO: 86) (peptide)
# peptide: K([γGlu-C18 diacid])KCNTATCATQRLAHFL[Aib]HSS[Aib]NFGPILPPTEVGSNTY-NH2
# modifications: disulfide 3-8; N-terminus assumed
# SMILES: CC[C@H](C)[C@H](NC(=O)[C@@H]1CCCN1C(=O)CNC(=O)[C@H](Cc1ccccc1)NC(=O)[C@H](CC(N)=O)NC(=O)C(C)(C)NC(=O)[C@H](CO)NC(=O)[C@H](CO)NC(=O)[C@H](Cc1c[nH]cn1)NC(=O)C(C)(C)NC(=O)[C@H](CC(C)C)NC(=O)[C@H](Cc1ccccc1)NC(=O)[C@H](Cc1c[nH]cn1)NC(=O)[C@H](C)NC(=O)[C@H](CC(C)C)NC(=O)[C@H](CCCNC(=N)N)NC(=O)[C@H](CCC(N)=O)NC(=O)[C@@H](NC(=O)[C@H](C)NC(=O)[C@@H]1CSSC[C@H](NC(=O)[C@H](CCCCN)NC(=O)[C@@H](N)CCCCNC(=O)CC[C@H](NC(=O)CCCCCCCCCCCCCCCCC(=O)O)C(=O)O)C(=O)N[C@@H](CC(N)=O)C(=O)N[C@@H]([C@@H](C)O)C(=O)N[C@@H](C)C(=O)N[C@@H]([C@@H](C)O)C(=O)N1)[C@@H](C)O)C(=O)N[C@@H](CC(C)C)C(=O)N1CCC[C@H]1C(=O)N1CCC[C@H]1C(=O)N[C@H](C(=O)N[C@@H](CCC(=O)O)C(=O)N[C@H](C(=O)NCC(=O)N[C@@H](CO)C(=O)N[C@@H](CC(N)=O)C(=O)N[C@H](C(=O)N[C@@H](Cc1ccc(O)cc1)C(N)=O)[C@@H](C)O)C(C)C)[C@@H](C)O
# B4: Peptide 84 (SEQ ID NO: 84) (peptide)
# peptide: K([γGlu-C18 diacid])KCNTATCATQRLANFLVHSS[Aib]NFGPILPPTNVG[Aib]NTY-NH2
# modifications: disulfide 3-8; N-terminus assumed
# SMILES: CC[C@H](C)[C@H](NC(=O)[C@@H]1CCCN1C(=O)CNC(=O)[C@H](Cc1ccccc1)NC(=O)[C@H](CC(N)=O)NC(=O)C(C)(C)NC(=O)[C@H](CO)NC(=O)[C@H](CO)NC(=O)[C@H](Cc1c[nH]cn1)NC(=O)[C@@H](NC(=O)[C@H](CC(C)C)NC(=O)[C@H](Cc1ccccc1)NC(=O)[C@H](CC(N)=O)NC(=O)[C@H](C)NC(=O)[C@H](CC(C)C)NC(=O)[C@H](CCCNC(=N)N)NC(=O)[C@H](CCC(N)=O)NC(=O)[C@@H](NC(=O)[C@H](C)NC(=O)[C@@H]1CSSC[C@H](NC(=O)[C@H](CCCCN)NC(=O)[C@@H](N)CCCCNC(=O)CC[C@H](NC(=O)CCCCCCCCCCCCCCCCC(=O)O)C(=O)O)C(=O)N[C@@H](CC(N)=O)C(=O)N[C@@H]([C@@H](C)O)C(=O)N[C@@H](C)C(=O)N[C@@H]([C@@H](C)O)C(=O)N1)[C@@H](C)O)C(C)C)C(=O)N[C@@H](CC(C)C)C(=O)N1CCC[C@H]1C(=O)N1CCC[C@H]1C(=O)N[C@H](C(=O)N[C@@H](CC(N)=O)C(=O)N[C@H](C(=O)NCC(=O)NC(C)(C)C(=O)N[C@@H](CC(N)=O)C(=O)N[C@H](C(=O)N[C@@H](Cc1ccc(O)cc1)C(N)=O)[C@@H](C)O)C(C)C)[C@@H](C)O
# B5: Peptide 82 (SEQ ID NO: 82) (peptide)
# peptide: K([γGlu-C18 diacid])KCNTATCATQRLANFLVHSS[Aib]NFGPILPPTNVGS[Aib]TY-NH2
# modifications: disulfide 3-8; N-terminus assumed
# SMILES: CC[C@H](C)[C@H](NC(=O)[C@@H]1CCCN1C(=O)CNC(=O)[C@H](Cc1ccccc1)NC(=O)[C@H](CC(N)=O)NC(=O)C(C)(C)NC(=O)[C@H](CO)NC(=O)[C@H](CO)NC(=O)[C@H](Cc1c[nH]cn1)NC(=O)[C@@H](NC(=O)[C@H](CC(C)C)NC(=O)[C@H](Cc1ccccc1)NC(=O)[C@H](CC(N)=O)NC(=O)[C@H](C)NC(=O)[C@H](CC(C)C)NC(=O)[C@H](CCCNC(=N)N)NC(=O)[C@H](CCC(N)=O)NC(=O)[C@@H](NC(=O)[C@H](C)NC(=O)[C@@H]1CSSC[C@H](NC(=O)[C@H](CCCCN)NC(=O)[C@@H](N)CCCCNC(=O)CC[C@H](NC(=O)CCCCCCCCCCCCCCCCC(=O)O)C(=O)O)C(=O)N[C@@H](CC(N)=O)C(=O)N[C@@H]([C@@H](C)O)C(=O)N[C@@H](C)C(=O)N[C@@H]([C@@H](C)O)C(=O)N1)[C@@H](C)O)C(C)C)C(=O)N[C@@H](CC(C)C)C(=O)N1CCC[C@H]1C(=O)N1CCC[C@H]1C(=O)N[C@H](C(=O)N[C@@H](CC(N)=O)C(=O)N[C@H](C(=O)NCC(=O)N[C@@H](CO)C(=O)NC(C)(C)C(=O)N[C@H](C(=O)N[C@@H](Cc1ccc(O)cc1)C(N)=O)[C@@H](C)O)C(C)C)[C@@H](C)O
# Target: T1, human amylin receptor (calcitonin …)
# Assay: cell-based or functional assay
Binder,EC50 (cAMP production),Ratio (EC50 hCTR / EC50 hAMYR3)
B1,0.599 nM,11
B2,0.806 nM,4
B3,0.119 nM,3
B4,0.118 nM,3
B5,0.514 nM,8

# Target: T2, human calcitonin receptor
# Assay: cell-based or functional assay
row,Binder,EC50 (cAMP production)
1,B1,6.34 nM
2,B2,3.1 nM
3,B3,0.311 nM
4,B4,0.401 nM
5,B5,4.28 nM
